This passage reports binding result and Kd results from paper PMC9035363 (Cell Reports, 2022).

Like-named read-outs stand apart in the source and are kept apart here.

Holding throughout (assay): SPR
(In general: In SPR one partner is held on a chip, and binding of the other changes the refractive index at the surface.)

Assay [1] concerns the target T1, SARS-CoV-2 S protein, soluble trimer (SARS-CoV-2, Wuhan reference …, UniProt P0DTC2, stabilised).
Assay [2] concerns the target T2, SARS-CoV-2 D614G S protein, soluble trimer (SARS-CoV-2, Wuhan sequence with D614G, UniProt A0A6H1PJZ3, D614G).
Assay [3] has as its target T1, SARS-CoV-2 S protein, soluble trimer. This is another data set of the same source.
Assay [4] addresses T2, SARS-CoV-2 D614G S protein, soluble …. The source holds these as a separate data set.

B1: REGN10987 (imdevimab) (antibody, V domains shown)
VH: QVQLVESGGGVVQPGRSLRLSCAASGFTFSNYAMYWVRQAPGKGLEWVAVISYDGSNKYYADSVKGRFTISRDNSKNTLYLQMNSLRTEDTAVYYCASGSDYGDYLLVYWGQGTLVTVSS
VL: QSALTQPASVSGSPGQSITISCTGTSSDVGGYNYVSWYQQHPGKAPKLMIYDVSKRPSGVSNRFSGSKSGNTASLTISGLQSEDEADYYCNSLTSISTWVFGGGTKLTVL
With B1, the binding result in assay [1] is “binds”.

B2: LY-CoV1404 (bebtelovimab), full-length human IgG1 mAb (antibody, V domains shown)
VH: QITLKESGPTLVKPTQTLTLTCTFSGFSLSISGVGVGWLRQPPGKALEWLALIYWDDDKRYSPSLKSRLTISKDTSKNQVVLKMTNIDPVDTATYYCAHHSISTIFDHWGQGTLVTVSS
VL: QSALTQPASVSGSPGQSITISCTATSSDVGDYNYVSWYQQHPGKAPKLMIFEVSDRPSGISNRFSGSKSGNTASLTISGLQAEDEADYYCSSYTTSSAVFGGGTKLTVL
B2: the Kd (commonly a measure of binding affinity in units of concentration) in assay [1] was determined as 220 pM; in assay [2], 46.1 pM; in assay [3], 74.5 pM.

B3: LY-CoV1404 Fab (papain digestion) (Fab, V domains shown)
VH: B2 VH
VL: B2 VL
The molecule B3 returned a Kd in assay [4] of 790 pM.
